What was measured:
DEPDC1-ZNF224 complex = biological target: T1, DEPDC1-ZNF224 complex (Homo sapiens, UniProt Q9NZL3, H562R/M118V); experiment: Immunoprecipitation of exogenous DEPDC1-HA and ZNF224-FLAG complex in peptide-treated COS7 cells; format: cell-based; conditions: for complex formation between exogenously expressed DEPDC1-HA and ZNF224-Flag (immunoprecipitation): six peptides added 6 hours after transfection, immunoprecipitation fifteen hours later
T1 construct: expressed in transfected cells; host or cells: COS7 cells, transiently co-transfected (pCAGGS-type vectors)
Method: To confirm the interaction between DEPDC1 and ZNF224 in bladder cancer cells and identify the ZNF224-binding region in DEPDC1, the immunoprecipitation experiment was carried out as follows. First, it was confirmed interaction between endogenous DEPDC1 and exogenous ZNF224 by immunoprecipitation experiments using anti-DEPDC1 polyclonal antibody for immunoprecipitation and anti-FLAGM2 antibody (Amersham) for immunoblotting. To further determine the ZNF224-binding region in DEPDC1, it was cloned six partial constructs of DEPDC1 (DEPDC11-147, DEPDC1141-300, DEPDC1177-597, DEPDC1300-669, DEPDC1587-740 and DEPDC1654-811) into appropriate sites of COOH-terminal HA-tagged pCAGGS vector. The nucleotide sequence of each clones were determined with an ABI Prism 3700 DNA sequencer (Applied Biosystems, Foster City, Calif.), using each primer. Cell extracts from Cos7 cell line, transfected with each of plasmids expressing one of these six partial segments of DEPDC1, were precleared by incubation at 4 degrees C. for 1 hour with 100 micro 1 of protein G-agarose beads in final volumes of 2 mL of immunoprecipitation buffer (0.5% NP40, 50 mmol/L Tris-HCl, 150 mmol/L NaCl) in the presence of proteinase inhibitor. After centrifugation at 1,000 rpm for 5 minutes at 4 degrees C., the supernatants were incubated at 4 degrees C. with anti-HA rat for 1 hours. After the beads were collected from each sample by centrifugation at 5,000 rpm for 2 minutes and washed six times with 1 mL of immunoprecipitation buffer, the washed beads were re-suspended in 50 uL of Laemmli sample buffer and boiled for 3 minutes before the proteins were separated on 10% SDS-PAGE gels. Immunoblot was done using anti-HA rat antibody and anti-FLAGM2 monoclonal antibody, respectively (Sigma-Aldrich Co., St. Louis, Mo.).
To examine the effect of these polyarginine (11R)-linked peptides on inhibition of the DEPDC1-ZNF224 complex formation, they were co-transfected with DEPDC1 and ZNF224 constructs into COS7 cells. […] Immunoprecipitation were performed according to methods as described in “Identification of the ZNF224-binding regions in DEPDC1 protein” section.

UM-UC-3 cells = experiment: MTT assay of cell viability of UM-UC-3 bladder cancer cells treated with 11R peptides; format: cell-based, human
Method: UM-UC-3 and normal human dermal fibroblast-derived NHDF-Ad cell lines were incubated with the 11R peptides at the concentration of 0, 1, 2, or 3 micromol/L for 5 days. Each peptide was added at every 24 hours at the appropriate concentrations and the viability of cells was evaluated by MTT assay at every day after the treatment.
To examine the effect of DEPDC1611-628 peptide on cell growth of UM-UC-3 and NHDF cells, the cells were incubated with the DEPDC1611-628 or scramble peptides at the concentration of 0, 1, 2, or 3 micro M for 5 days, respectively. Each peptide was added at every 24 hours at the appropriate concentrations and the viability of cells was evaluated by MTT assay every day. Absorbance at 570 nm wavelength was measured with a Microplate Reader 550 (Bio-Rad). These experiments were performed in triplicate.

NF-kappaB (p65) = experiment: Immunocytochemical staining of nuclear NF-kappaB (p65) in UM-UC-3 cells; format: cell-based, human; conditions: UM-UC-3 cells treated with peptide for 12 hours
Method: For detection of NF-kappaB expression in the nucleus after treatment with dominant-negative peptide (see “Dominant-negative peptide section”), UM-UC-3 cells (1×10^5) were seeded and then treated with each peptide for 12 hours. Subsequently, immunocytochemical staining was performed using anti-NF-kappaB (p65) monoclonal antibody (diluted at 1:200) (Santa Cruz, Calif., USA). Fluorescent images and nuclear intensity of NF-kappaB (p65) protein were obtained under a TCS SP2 AOBS microscope (Leica, Tokyo, Japan). For the image analysis, the nuclear signal intensities of NF-kappaB (p65) were measured by observing nuclei of 50 cells treated with the 11R-DEP611-628 peptide or scramble peptide (see “Dominant-negative peptide section”). Assays were performed in triplicate independently.

DLG1 = experiment: Quantitative RT-PCR of downstream gene DLG1 in UM-UC-3 cells; format: cell-based, human; conditions: bladder cancer cells after peptide treatment
Method: UM-UC-3 cells were transfected with siRNA against DEPDC1 (si-DEPDC1), ZNF224 (si-ZNF224-2) or EGFP (control siRNA). The target sequences of the synthetic oligo-duplex for siRNA against DEPDC1 (Sigma Aldrich) were as follows: si-DEPDC1,5′-CCAAAGUUCCGUAGUCUAA-3′(SEQ ID NO: 75), ZNF224 (si-ZNF224-2) or EGFP as described in “RNA interference assay” section.
Total RNAs were extracted from each sample at 12 hours and 24 hours after the transfection, labeled with Cy5 (for si-DEPDC1- and si-ZNF224-2-transfected cells) or Cy3 (for si-EGFP-transfected cells), and subjected to cohybridization onto cDNA microarrayslides containing 36468 cDNA or ESTs as described previously (Takata R, et al., Clin Cancer Res 2005 11:2625-36). After normalization of the data, it was excluded genes from further analysis when Cy5 and Cy3 dyes yielded signals intensities lower than the cut-off value. For other genes, the Cy5/Cy3 ratio was calculated using the raw data of each samples. […] Validation of candidate downstream genes of both DEPDC1 and ZNF224 was carried out with quantitative RT-PCR analysis using the SYBR green dye (Rhoche) and the same amplified RNAs from UM-UC-3 cells used for cDNA microarray experiments, with each gene-specific primer as follows;
All experiments were performed in duplicate. The calculated quantity of the target gene for each sample was then divided by the average calculated quantity of beta 2-microglobulin (beta 2-MG) corresponding to each sample to give a relative expression of the target gene for each sample

T1 sequence (Q9NZL3 whole entry M118V/H562R, one chain of several): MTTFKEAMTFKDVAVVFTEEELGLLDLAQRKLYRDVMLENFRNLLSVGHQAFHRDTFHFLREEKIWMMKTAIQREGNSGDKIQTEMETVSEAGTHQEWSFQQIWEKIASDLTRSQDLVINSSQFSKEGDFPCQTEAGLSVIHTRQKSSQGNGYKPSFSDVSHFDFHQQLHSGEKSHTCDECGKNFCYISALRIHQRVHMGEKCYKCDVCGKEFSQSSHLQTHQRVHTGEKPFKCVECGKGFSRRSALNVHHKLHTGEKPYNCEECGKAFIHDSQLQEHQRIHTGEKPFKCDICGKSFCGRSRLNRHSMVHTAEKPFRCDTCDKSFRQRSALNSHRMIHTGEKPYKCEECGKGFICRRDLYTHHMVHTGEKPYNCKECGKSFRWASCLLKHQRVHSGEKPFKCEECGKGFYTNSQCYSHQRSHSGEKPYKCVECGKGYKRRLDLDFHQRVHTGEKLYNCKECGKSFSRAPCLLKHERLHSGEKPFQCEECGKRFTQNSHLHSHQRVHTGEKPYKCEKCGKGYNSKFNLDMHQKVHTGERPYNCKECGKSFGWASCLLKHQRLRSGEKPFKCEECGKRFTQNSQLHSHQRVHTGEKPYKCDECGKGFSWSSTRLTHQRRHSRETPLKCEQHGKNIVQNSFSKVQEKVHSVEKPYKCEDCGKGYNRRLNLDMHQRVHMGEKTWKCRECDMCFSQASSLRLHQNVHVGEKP

Row | Substance | complex formation between exogenously expressed DEPDC1-HA and ZNF224-Flag (immunoprecipitation) (DEPDC1-ZNF224 complex) | other results
1 | RRRRRRRRRRR-GGG-ISRMSQNVDMPKLHDAMG (RRRRRRRRRRRGGGISRMSQNVDMPKLHDAMG; An artificially synthesised dominant negative peptide) [11R-DEP624-641, 11R-linked DEPDC1 codons 624-641 peptide] | no inhibition | –
2 | RRRRRRRRRRR-GGG-LHDAMGTRSLMIHTFSRC (RRRRRRRRRRRGGGLHDAMGTRSLMIHTFSRC; An artificially synthesised dominant negative peptide) [11R-DEP636-653, 11R-linked DEPDC1 codons 636-653 peptide] | no inhibition | –
3 | RRRRRRRRRRR-GGG-LRMSRLSPNMIMQRPKRL (RRRRRRRRRRRGGGLRMSRLSPNMIMQRPKRL; An artificially synthesised dominant negative peptide) [scramble611-628] | not inhibit | complex formation of DEPDC1-HA and ZNF224-FLAG (immunoprecipitation) (DEPDC1-ZNF224 complex; four peptides at 3 micro M added 6 hours after transfection, twenty-four hours later): no effect; cell viability measured by MTT assay (UM-UC-3 cells; UM-UC-3 cells, peptide 1, 2 or 3 micro M added every 24 hours for 5 days): no effect; cell growth or cellular morphology (UM-UC-3 cells; cells treated with peptide, FIG. 5D): no alterations in cell growth or cellular morphology; nuclear-staining of NF-kappa B (p65) protein (NF-kappaB (p65)): no effect; expression of DLG1 (quantitative RT-PCR) (DLG1): not
4 | RRRRRRRRRRR-GGG-NGEKIKHEIINEDQENAI (RRRRRRRRRRRGGGNGEKIKHEIINEDQENAI; An artificially synthesised dominant negative peptide) [11R-DEP159-176, 11R-linked DEPDC1 codons 159-176 peptide] | no inhibition | –
5 | RRRRRRRRRRR-GGG-PKRHGLHLSQENGEKIKHE (RRRRRRRRRRRGGGPKRHGLHLSQENGEKIKHE; An artificially synthesised dominant negative peptide) [11R-DEP148-166, 11R-linked DEPDC1 codons 148-166 peptide] | no inhibition | –

— US8975086B2, “Method for treating or preventing bladder cancer using the DEPDC1 polypeptide” (OncoTherapy Science, Inc., priority 2008, dated 2015)
